These results are taken from publication PMC4351158.

Where a chain is given by its changes, count along the chain named. Names and notes keep the numbering of the source.

B1: DegP S210A/R187A (enzyme)
chain: AETSSATTAQQMPSLAPMLEKVMPSVVSINVEGSTTVNTPRMPRNFQQFFGDDSPFCQEGSPFQSSPFCQGGQGGNGGGQQQKFMALGSGVIIDADKGYVVTNNHVVDNATVIKVQLSDGRKFDAKMVGKDPRSDIALIQIQNPKNLTAIKMADSDALRVGDYTVAIGNPFGLGETVTSGIVSALGASGLNAENYENFIQTDAAINRGNAGGALVNLNGELIGINTAILAPDGGNIGIGFAIPSNMVKNLTSQMVEYGQVKRGELGIMGTELNSELAKAMKVDAQRGAFVSQVLPNSSAAKAGIKAGDVITSLNGKPISSFAALRAQVGTMPVGSKLTLGLLRDGKQVNVNLELQQSSQNQVDSSSIFNGIEGAEMSNKGKDQGVVVNNVKTGTPAAQIGLKKGDVIIGANQQAVKNIAELRKVLDSKPSVLALNIQRGDSTIYLLMQ
modifications: donor or acceptor dye on the trimers in the FRET assay only (site not given)
B2: DegP S210A/T176V (enzyme)
chain: B1 chain with T176V, A187R
modifications: donor or acceptor dye on the trimers in the FRET assay only (site not given)
B3: DegP S210A/Q200A (enzyme)
chain: B1 chain with A187R, Q200A
modifications: donor or acceptor dye on the trimers in the FRET assay only (site not given)
B4: DegP S210A (proteolytically inactive variant missing the catalytic serine) (enzyme)
chain: B1 chain with A187R
modifications: donor or acceptor dye on the trimers in the FRET assay only (site not given)

The target in the first assay is fluorescent peptide derived from residues 18-58 of lysozyme. As to the kind of experiment: fluorescence polarisation. (In fluorescence polarisation assays a small probe gives low polarisation when free and higher when bound to something large.)
The term Kd denotes a measure of binding affinity in units of concentration. A high value points to a looser complex. As for B1, the Kd was found to be 30 µM. B2 registered a Kd of 30 µM.

B3 returned a Kd of 30 µM. This lies in the double-digit micromolar range.

The target is the same in another assay. Kind of assay: fluorescence polarisation. The source holds these as a separate data set.
On to B4, for which the Kd turned out to be 1 µM. On the same count and under the same terms, in the case of B1 it was 30 µM; in that of B2, 30 µM; in that of B3, 30 µM.
